The results in this text go back to patent publication CN116670173A (LAMCAP BIOTEST LTD, dated 2023).

B1: K2AC84 (bispecific antibody, human IgG1, kappa, lambda)
heavy: not shown
light 1: QSVLTQPPSVSAAPGQKVTISCSGSSSNIGIGLVSWYQQLPGTAPKLLIYNVNTRPSGIPDRFSGSKSGTSATLGITGLQTGDEADYYCGTWDFSYRVDFGGGTKLTVLGQPKAAPSVTLFPPSSEELQANKATLVCLISDFYPGAVTVAWKADSSPVKAGVETTTPSKQSNNKYAASSYLSLTPEQWKSHRSYSCQVTHEGSTVEKTVAPTECS
light 2: not shown
notes: kappa-lambda body, human IgG1; Common heavy chain and CD47 light chain tied by embodiment language only; also called CD47xCEACAM5双特异性抗体K2AC84; CEACAM5xCD47双特异性抗体
B2: K2AC22 (bispecific antibody, human IgG1, kappa, lambda)
heavy: not shown
light 1: QSVLTQPPSVSAAPGQKVTISCSGSSSNIANGIVSWYQQLPGTAPKLLIYFDNLRPSGIPDRFSGSKSGTSATLGITGLQTGDEADYYCGTWDFSYGIVFGGGTKLTVLGQPKAAPSVTLFPPSSEELQANKATLVCLISDFYPGAVTVAWKADSSPVKAGVETTTPSKQSNNKYAASSYLSLTPEQWKSHRSYSCQVTHEGSTVEKTVAPTECS
light 2: not shown
notes: Comparator from WO2019234576; also called 现有技术的双特异性CEAxCD47抗体K2AC22
B3: K2AC100 (bispecific antibody, human IgG1, kappa, lambda)
heavy: not shown
light 1: QSVLTQPPSVSAAPGQKVTISCSGSSSNIGYGLVSWYQQLPGTAPKLLIYNGNIRPSGIPDRFSGSKSGTSATLGITGLQTGDEADYYCGTWDFSYRVDFGGGTKLTVLGQPKAAPSVTLFPPSSEELQANKATLVCLISDFYPGAVTVAWKADSSPVKAGVETTTPSKQSNNKYAASSYLSLTPEQWKSHRSYSCQVTHEGSTVEKTVAPTECS
light 2: not shown
notes: kappa-lambda body, human IgG1; Common heavy chain and CD47 light chain tied by embodiment language only; also called CD47xCEACAM5双特异性抗体K2AC100; CEAxCD47双特异性抗体K2AC100
B4: K2AC91 (bispecific antibody, human IgG1, kappa, lambda)
heavy: not shown
light 1: QSVLTQPPSVSAAPGQKVTISCSGSSSNIGIGLVSWYQQLPGTAPKLLIYTVNNRPSGIPDRFSGSKSGTSATLGITGLQTGDEADYYCGTFDFSYGIVFGGGTKLTVLGQPKAAPSVTLFPPSSEELQANKATLVCLISDFYPGAVTVAWKADSSPVKAGVETTTPSKQSNNKYAASSYLSLTPEQWKSHRSYSCQVTHEGSTVEKTVAPTECS
light 2: not shown
notes: kappa-lambda body, human IgG1; Common heavy chain and CD47 light chain tied by embodiment language only; also called CD47xCEACAM5双特异性抗体K2AC91; CEACAM5xCD47双特异性抗体
B5: K2AC117 (bispecific antibody, human IgG1, kappa, lambda)
heavy: not shown
light 1: QSVLTQPPSVSAAPGQKVTISCSGSSSNIGIGLVSWYQQLPGTAPKLLIYNGNVRPSGIPDRFSGSKSGTSATLGITGLQTGDEADYYCGTWDFSYRVDFGGGTKLTVLGQPKAAPSVTLFPPSSEELQANKATLVCLISDFYPGAVTVAWKADSSPVKAGVETTTPSKQSNNKYAASSYLSLTPEQWKSHRSYSCQVTHEGSTVEKTVAPTECS
light 2: not shown
notes: kappa-lambda body, human IgG1; Common heavy chain and CD47 light chain tied by embodiment language only; also called CD47xCEACAM5双特异性抗体K2AC117; K2AC177 (as printed in some legends)
B6: K2AC82 (bispecific antibody)
heavy: not shown
light 1: QSVLTQPPSVSAAPGQKVTISCSGSSSNIGYGLVSWYQQLPGTAPKLLIYGINKRPSGIPDRFSGSKSGTSATLGITGLQTGDEADYYCGTWDFSYRVDFGGGTKLTVL
light 2: not shown
notes: kappa-lambda body, human IgG1, one arm for each target; Common heavy chain and CD47 light chain are tied to the antibodies of the invention by embodiment language only; also called CD47xCEACAM5双特异性抗体K2AC82; CEACAM5xCD47双特异性抗体; not shown: lambda constant domain; probably S

T1 sequence (Q08722 19-323): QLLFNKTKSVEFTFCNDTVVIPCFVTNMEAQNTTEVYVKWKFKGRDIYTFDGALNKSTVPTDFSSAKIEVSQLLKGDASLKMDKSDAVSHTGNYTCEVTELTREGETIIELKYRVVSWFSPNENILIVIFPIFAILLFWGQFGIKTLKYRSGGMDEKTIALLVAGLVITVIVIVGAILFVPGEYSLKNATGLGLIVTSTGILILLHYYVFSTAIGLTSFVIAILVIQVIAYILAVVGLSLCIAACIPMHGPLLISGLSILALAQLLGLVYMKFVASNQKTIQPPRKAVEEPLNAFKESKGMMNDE

The test addresses T1, 在MKN-45细胞表面表达的人CD47 (human, UniProt Q08722 19-323).
T1 construct: whole, on cells; MKN-45 cells also carry CEACAM5; also called hCD47; CD47 on MKN-45 cells
Description: CD47/SIRPα blocking assay on MKN-45 cells, SIRPα-mouse Fc 50 ng/mL, imaging (CX5).
Turning to B1, the midpoint of inhibition, the IC50, lay at 0.04 nM. In the case of B2, inhibition was half-maximal at 1.2 nM (IC50). Consider B3, for which it took 0.09 nM to reach half-maximal inhibition (IC50). The figure for B4 is 0.05 nM; for B5 it is 0.08 nM. The figure for B6 is 0.07 nM.
